± gives the standard deviation of the averaged measurements.
B1: library; a variant is named by its letters at N, in order (parent)
chain: GCUGUCACCGAGAAACUGUGAAGUAUAUCUUAAACCUGGGCACUUAAAAGAUAUAUGGAGUUAGUAGUGCAACCUGCUCGGUCUGAUGAGUCCNNNNNNGGACGAAACAGC

Key:
[1] = variants of: B1; assay: FACS-Seq fitted mean relative fluorescence mCherry/BFP without ligand (log10 relative fluorescence); HEK293T; ligand: cyclic di-GMP (c-di-GMP-II aptamer); higher = higher reporter protein expression; conditions: ligand present: no
How it was run: (§1)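 With or without ligand for 48 h, enriched HEK293T libraries carrying a lentiviral ribozyme-switch mCherry reporter and EF1α-BFP were sorted into 6 mCherry/BFP bins. Bin genomic DNA was amplified by PCR, barcoded and sequenced on MiSeq. Fluorescence was taken from normal fits to the resulting bin counts. Each fitted mean of log10(mCherry/BFP) was scaled to five spiked-in control ribozymes.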

[2] = variants of: B1; assay: normalized RNA/DNA level without ligand (relative to sTRSVctl = 100) (log10 (% of sTRSVctl)); HEK293T; ligand: cyclic di-GMP (c-di-GMP-II aptamer); higher = less ribozyme self-cleavage, higher mRNA level; conditions: reporter: mCherry (pCS4076), ligand present: no
How it was run: (§2)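 HEK293T cells received ligand, where used, 1 h before being transfected with 4 µg per 6-well well of library plasmids encoding reporter-linked ribozyme switches. After 72 h, RNA was extracted with EDTA and sequenced. RNA level was derived from RNA reads per DNA read, normalized to a spiked-in non-cleaving sequence or the top sequences, then scaled and log-transformed. Values were ×100 then log10, the top set was 25 sequences, and the minimum was 100 DNA reads.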

[3] = variants of: B1; assay: FACS-Seq fitted mean relative fluorescence mCherry/BFP with ligand (log10 relative fluorescence); HEK293T; ligand: cyclic di-GMP (c-di-GMP-II aptamer); ligand concentration (+) FACS-Seq: 1 mM; higher = higher reporter protein expression; conditions: ligand present: yes
How it was run: as §1

[4] = variants of: B1; assay: normalized RNA/DNA level with ligand (relative to sTRSVctl = 100) (log10 (% of sTRSVctl)); HEK293T; ligand: cyclic di-GMP (c-di-GMP-II aptamer); ligand concentration (+) RNA-Seq: 1 mM; higher = less ribozyme self-cleavage, higher mRNA level; conditions: reporter: mCherry (pCS4076), ligand present: yes
How it was run: as §2

| Variant | FACS-Seq fitted mean (log10) [1] | normalized RNA/DNA level without ligand (log10) [2] | FACS-Seq fitted mean (log10) [3] | normalized RNA/DNA level with ligand (log10) [4] |
| --- | --- | --- | --- | --- |
| ACUGUA | -0.443 ± 0.033 | 1.51 ± 0.076 | -0.138 ± 0.021 | 1.76 ± 0.094 |
| GCUCAU | -0.503 ± 0.042 | 1.66 ± 0.0087 | -0.178 ± 0.097 | 1.78 ± 0.1 |
| UGAUAC | -0.0926 ± 0.067 | 1.69 ± 0.02 | 0.197 ± 0.054 | 1.8 ± 0.12 |
| UGAUAG | -0.125 ± 0.093 | 1.696 ± 0.015 | 0.191 ± 0.081 | 1.83 ± 0.12 |
| GCUGUU | -0.596 ± 0.057 | 1.63 ± 0.059 | -0.418 ± 0.084 | 1.79 ± 0.082 |
| GCUGUG | -0.283 ± 0.07 | 1.64 ± 0.018 | -0.00737 ± 0.013 | 1.79 ± 0.085 |
| GCUGUA | -0.0986 ± 0.038 | 1.6 ± 0.04 | 0.213 ± 0.017 | 1.74 ± 0.12 |
| AGAAUC | -0.291 ± 0.023 | 1.63 ± 0.06 | -0.0843 ± 0.044 | 1.78 ± 0.073 |
| AGAAUU | 0.202 ± 0.13 | 1.65 ± 0.072 | 0.346 ± 0.074 | 1.8 ± 0.12 |
| AGAAUG | -0.367 ± 0.045 | 1.48 ± 0.12 | -0.126 ± 0.14 | 1.68 ± 0.043 |
| GCUCGU | -0.452 ± 0.016 | 1.692 ± 0.015 | -0.0822 ± 0.049 | 1.83 ± 0.038 |
| UGAAGU | -0.24 ± 0.081 | 1.59 ± 0.024 | 0.0885 ± 0.12 | 1.79 ± 0.12 |
| ACGGGA | -0.467 ± 0.019 | 1.42 ± 0.16 | -0.161 ± 0.068 | 1.58 ± 0.075 |
| ACUGGU | -0.466 ± 0.02 | 1.52 ± 0.024 | -0.166 ± 0.029 | 1.76 ± 0.079 |
| ACUGGG | -0.467 ± 0.024 | 1.58 ± 0.07 | -0.104 ± 0.015 | 1.69 ± 0.11 |
| ACUGGA | -0.72 ± 0.0076 | 1.39 ± 0.091 | -0.5113 ± 0.0047 | 1.59 ± 0.087 |
| GCUAAU | -0.207 ± 0.11 | 1.56 ± 0.049 | 0.146 ± 0.04 | 1.74 ± 0.078 |
| CGAGCG | -0.783 ± 0.013 | 1.81 ± 0.023 | -0.5474 ± 0.004 | 1.9 ± 0.12 |
| CCGGAU | -0.339 ± 0.015 | 1.55 ± 0.074 | -0.0202 ± 0.13 | 1.76 ± 0.1 |
| CCUGCC | -0.367 ± 0.12 | 1.79 ± 0.018 | -0.0275 ± 0.059 | 1.89 ± 0.052 |
| UCUAAU | -0.491 ± 0.013 | 1.6 ± 0.017 | -0.327 ± 0.062 | 1.78 ± 0.1 |
| UCUAAA | -0.692 ± 0.041 | 1.495 ± 0.0055 | -0.441 ± 0.055 | 1.74 ± 0.15 |
| AGAGAA | -0.335 ± 0.073 | 1.33 ± 0.12 | -0.0362 ± 0.068 | 1.54 ± 0.1 |
| ACUAUA | -0.358 ± 0.029 | 1.53 ± 0.057 | 0.067 ± 0.087 | 1.72 ± 0.12 |

| Variant | FACS-Seq fitted mean (log10) [1] | normalized RNA/DNA level without ligand (log10) [2] | FACS-Seq fitted mean (log10) [3] | normalized RNA/DNA level with ligand (log10) [4] |
| --- | --- | --- | --- | --- |
| GCUCUU | -0.277 ± 0.12 | 1.66 ± 0.07 | -0.215 ± 0.015 | 1.82 ± 0.16 |
| GCUCUA | -0.242 ± 0.011 | 1.64 ± 0.039 | 0.0781 ± 0.02 | 1.8 ± 0.025 |
| UGACGC | -0.22 ± 0.01 | 1.73 ± 0.027 | 0.123 ± 0.016 | 1.84 ± 0.17 |
| CCGGUU | -0.109 ± 0.11 | 1.592 ± 0.0094 | 0.264 ± 0.0069 | 1.78 ± 0.096 |
| CCGGUA | -0.505 ± 0.068 | 1.36 ± 0.12 | -0.223 ± 0.059 | 1.61 ± 0.087 |
| CCGGUG | -0.614 ± 0.039 | 1.27 ± 0.12 | -0.397 ± 0.038 | 1.46 ± 0.11 |
| GCUGCG | -1.43 ± 0.31 | 1.789 ± 0.016 | -1.28 ± 0.14 | 1.87 ± 0.13 |
| GCUGCA | 0.156 ± 0.0048 | 1.77 ± 0.025 | 0.255 ± 0.059 | 1.85 ± 0.089 |
| CCGUAA | -0.4729 ± 0.0036 | 1.35 ± 0.17 | -0.242 ± 0.019 | 1.57 ± 0.082 |
| CCGUAU | -0.719 ± 0.038 | 1.5 ± 0.015 | -0.441 ± 0.007 | 1.69 ± 0.16 |
| UCUGUA | -0.293 ± 0.01 | 1.57 ± 0.089 | 0.0285 ± 0.0098 | 1.77 ± 0.041 |
| GCGUCG | -0.555 ± 0.037 | 1.64 ± 0.037 | -0.312 ± 0.016 | 1.77 ± 0.11 |
| CCUCCU | -0.211 ± 0.0029 | 1.678 ± 0.011 | 0.278 ± 0.026 | 1.77 ± 0.098 |
| CCUCCG | 0.138 ± 0.023 | 1.769 ± 0.013 | 0.32 ± 0.035 | 1.87 ± 0.073 |
| CCUCCC | -0.363 ± 0.069 | 1.81 ± 0.025 | -0.153 ± 0.079 | 1.89 ± 0.12 |
| CGAACA | -0.456 ± 0.075 | 1.58 ± 0.045 | -0.276 ± 0.0035 | 1.7 ± 0.074 |
| CGAAUU | -0.504 ± 0.036 | 1.38 ± 0.11 | -0.238 ± 0.016 | 1.57 ± 0.088 |
| CGAAUA | -0.507 ± 0.0079 | 1.24 ± 0.091 | -0.209 ± 0.083 | 1.45 ± 0.086 |
| GCUAGA | -0.35 ± 0.031 | 1.49 ± 0.043 | -0.116 ± 0.03 | 1.67 ± 0.099 |
| CGAGAU | -0.412 ± 0.057 | 1.52 ± 0.064 | -0.0533 ± 0.042 | 1.76 ± 0.11 |
| CGAGAA | 0.00961 ± 0.085 | 1.35 ± 0.15 | 0.126 ± 0.031 | 1.55 ± 0.037 |
| UCUGAA | -0.341 ± 0.042 | 1.51 ± 0.079 | -0.0714 ± 0.032 | 1.73 ± 0.099 |
| UCUGAU | -0.331 ± 0.024 | 1.6 ± 0.061 | -0.0535 ± 0.0022 | 1.83 ± 0.14 |
| ACGUGU | -0.475 ± 0.012 | 1.45 ± 0.097 | -0.096 ± 0.051 | 1.69 ± 0.078 |

| Variant | FACS-Seq fitted mean (log10) [1] | normalized RNA/DNA level without ligand (log10) [2] | FACS-Seq fitted mean (log10) [3] | normalized RNA/DNA level with ligand (log10) [4] |
| --- | --- | --- | --- | --- |
| ACGUGA | -0.228 ± 0.016 | 1.33 ± 0.052 | -0.0284 ± 0.061 | 1.54 ± 0.096 |
| ACGUGG | -0.532 ± 0.088 | 1.56 ± 0.11 | -0.352 ± 0.032 | 1.74 ± 0.058 |
| AGACUA | -0.122 ± 0.029 | 1.55 ± 0.038 | 0.261 ± 0.022 | 1.74 ± 0.14 |
| UGAGUC | -0.147 ± 0.039 | 1.7273 ± 0.0012 | 0.117 ± 0.074 | 1.87 ± 0.14 |
| UGAGUG | -0.0499 ± 0.13 | 1.7246 ± 0.00091 | 0.259 ± 0.047 | 1.83 ± 0.091 |
| CGACGA | -0.45 ± 0.042 | 1.5 ± 0.094 | -0.105 ± 0.043 | 1.71 ± 0.071 |
| ACUGAA | -0.493 ± 0.087 | 1.43 ± 0.09 | -0.161 ± 0.014 | 1.64 ± 0.074 |
| ACUGAU | -0.368 ± 0.075 | 1.43 ± 0.11 | -0.128 ± 0.13 | 1.62 ± 0.11 |
| UCGGAU | -0.57 ± 0.024 | 1.43 ± 0.097 | -0.239 ± 0.0084 | 1.68 ± 0.06 |
| UCGGAG | -0.311 ± 0.011 | 1.54 ± 0.088 | 0.0865 ± 0.03 | 1.72 ± 0.08 |
| ACGGUA | -0.397 ± 0.031 | 1.37 ± 0.069 | -0.0373 ± 0.057 | 1.57 ± 0.14 |
| ACGGUU | -0.529 ± 0.031 | 1.22 ± 0.074 | -0.237 ± 0.11 | 1.4 ± 0.1 |
| CCUACC | -0.57 ± 0.25 | 1.757 ± 0.0078 | -0.577 ± 0.048 | 1.85 ± 0.053 |
| AGACAA | -0.193 ± 0.061 | 1.47 ± 0.057 | 0.171 ± 0.019 | 1.65 ± 0.1 |
| GCUAUA | -0.262 ± 0.11 | 1.55 ± 0.058 | -0.134 ± 0.099 | 1.73 ± 0.11 |
| GCUAUG | -0.741 ± 0.034 | 1.58 ± 0.075 | -0.505 ± 0.019 | 1.72 ± 0.078 |
| UCGGUA | -0.583 ± 0.023 | 1.31 ± 0.18 | -0.2658 ± 0.00058 | 1.52 ± 0.054 |
| UCGGUC | -0.238 ± 0.16 | 1.675 ± 0.0093 | 0.0705 ± 0.033 | 1.83 ± 0.1 |
| CCGGGG | -0.589 ± 0.03 | 1.43 ± 0.022 | -0.295 ± 0.011 | 1.62 ± 0.11 |
| CCGUUG | -0.483 ± 0.093 | 1.28 ± 0.069 | -0.2456 ± 0.00076 | 1.49 ± 0.1 |
| GCGUUU | -0.452 ± 0.069 | 1.6 ± 0.026 | -0.302 ± 0.06 | 1.77 ± 0.14 |
| UCUGCU | -0.406 ± 0.013 | 1.786 ± 0.0052 | -0.176 ± 0.02 | 1.88 ± 0.081 |
| AGAAAA | -0.765 ± 0.013 | 1.42 ± 0.084 | -0.587 ± 0.043 | 1.61 ± 0.089 |

Source: the supplement of paper PMC6757056
